Data taken from patent EP4582447A1 (Quaerite Biopharm Research (Beijing) Co., Ltd., dated 2025).

biological target: T1, Human VEGFA165 (human, UniProt P15692-4 27-191); experiment: competition ELISA on coated VEGFA, competitor VEGFR2-ECD-Fc 2 nM
T1 construct: treated as the same molecule; also called antigen VEGFA
T1 sequence (P15692 other isoform, or with tags, fused parts or gaps limits assumed): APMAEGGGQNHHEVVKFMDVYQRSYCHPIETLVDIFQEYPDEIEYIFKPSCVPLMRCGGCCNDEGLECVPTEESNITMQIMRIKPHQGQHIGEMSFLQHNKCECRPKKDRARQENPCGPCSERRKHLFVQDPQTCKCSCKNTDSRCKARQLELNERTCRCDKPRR

IC50	Maximum inhibition rate (%)	Binder
0.0261 µM	93%	V1-4m (VHH, Humanized V1) VHH: EVQLVESGGGLVQPGGSLRLSCAASGRTFSSYTMGWFRQAPGKEREFVVAISKGGYKYDSVSLEARFTISRDNAKNTVYLQMNSLRPEDTAVYYCASTRAYGSSRLRLADTYEYWGQGTLVTVSS
0.0401 µM	88.9%	V13-2m (VHH, Humanized V13 (CDR graft on humanized V1 frameworks)) VHH: EVQLVESGGGLVQPGGSLRLSCAASGRTFTSYTMGWFRQAPGKEREFVVAISKGGYKYDAVSLEARFTISRDNSKNTVYLQMNSLRPEDTAVYYCAGTRAYGSSRLRLADTYEYWGQGTLVTVSS
0.02 µM	94.4%	V1-com-74-78-97 (VHH, Humanized V1) VHH: EVQLVESGGGLVQPGGSLRLSCAASGRTFSSYTMGWFRQAPGKEREFVVAISKGGYKYDSVSLEARFTISRDNAKNTVYLQMNSLRAEDTAVYYCASTRAYGSSRLRLADTYEYWGQGTLVTVSS
0.0355 µM	89.3%	V43-4m (VHH, Humanized V43) VHH: EVQLVESGGGLVQPGGSLRLSCAASGRTFTSYTMGWFRQAPGKEREFVVAISKGGYKYDSVSLEARFTISRDNAKNTVYLQMNSLRPEDTAVYYCAGTRAYGSSRLRLANTYEYWGQGTLVTVSS
0.0267 µM	93.5%	V1-SA3 (VHH, Humanized V1) VHH: EVQLVESGGGLVQPGGSLRLSCAASGRTFSSYTMGWFRQAPGKEREFVVAISKGGYKYDSVSLEARFTISRDNAKNTVYLQMNSLRAEDTAVYYCAATRAYGSSRLRLADTYEYWGQGTLVTVSS
0.0268 µM	89.2%	V13-4m (VHH, Humanized V13) VHH: EVQLVESGGGLVQPGGSLRLSCAASGRTFTSYTMGWFRQAPGKEREFVVAISKGGYKYDAVSLEARFTISRDNAKNTVYLQMNSLRPEDTAVYYCAGTRAYGSSRLRLADTYEYWGQGTLVTVSS

biological target: T1, Human VEGFA165; experiment: competition ELISA on coated VEGFA, competitor VEGFR2-ECD-Fc 1 nM

IC50	Maximum inhibition rate (%)	Binder
0.00562 µM	95.5%	V43-1H-78 (VHH, Humanized V43) VHH: EVQLVESGGGLVQPGGSLRLSCAASGRTFSSYTMGWFRQAPGKEREFVVAISKGGYKYDSVSLEARFTISRDNSKNTVYLQMNSLRAEDTAVYYCAATRAYGSSRLRLANTYEYWGQGTLVTVSS
0.00564 µM	94.7%	V30-2H-2m (VHH, Humanized V30) VHH: EVQLVESGGGLVQPGGSLRLSCAASGRTFSSYTMGWFRQAPGKEREFVVAISKGGYKYDAVSLEARFTISRDNSKNTVYLQMNSLRPEDTAVYYCAATRAYGSSRLRLAKTYEYWGQGTLVTVSS
0.00599 µM	94.5%	V43-1H-2m (VHH, Humanized V43) VHH: EVQLVESGGGLVQPGGSLRLSCAASGRTFSSYTMGWFRQAPGKEREFVVAISKGGYKYDSVSLEARFTISRDNSKNTVYLQMNSLRPEDTAVYYCAATRAYGSSRLRLANTYEYWGQGTLVTVSS
0.00527 µM	95.4%	V43-1H-87 (VHH, Humanized V43) VHH: EVQLVESGGGLVQPGGSLRLSCAASGRTFSSYTMGWFRQAPGKEREFVVAISKGGYKYDSVSLEARFTISRDNSKNTLYLQMNSLRPEDTAVYYCAATRAYGSSRLRLANTYEYWGQGTLVTVSS
0.00581 µM	94.2%	V30-2H-87 (VHH, Humanized V30) VHH: EVQLVESGGGLVQPGGSLRLSCAASGRTFSSYTMGWFRQAPGKEREFVVAISKGGYKYDAVSLEARFTISRDNSKNTLYLQMNSLRPEDTAVYYCAATRAYGSSRLRLAKTYEYWGQGTLVTVSS
0.00497 µM	95.5%	V30-2H-78 (VHH, Humanized V30) VHH: EVQLVESGGGLVQPGGSLRLSCAASGRTFSSYTMGWFRQAPGKEREFVVAISKGGYKYDAVSLEARFTISRDNSKNTVYLQMNSLRAEDTAVYYCAATRAYGSSRLRLAKTYEYWGQGTLVTVSS
